Laboratory results from US20260055205A1 (published 2026).
One block for each binder: values may come before it.

Experiments:
human PSMA-Fc [1] = molecular target: T1, human PSMA-Fc (human, UniProt Q04609 44-750); experiment: Octet
T1 construct: also called Human PSMA-Fc fusion

human PSMA-Fc [2] = molecular target: T1, human PSMA-Fc; experiment: Octet; remark: listed apart in the source
human CD3 epsilon = molecular target: T2, human CD3 epsilon (human, UniProt P07766 23-126, limits assumed); experiment: BLI or SPR
T2 construct: also called huCD3e
T2 sequence (P07766 23-126 limits assumed): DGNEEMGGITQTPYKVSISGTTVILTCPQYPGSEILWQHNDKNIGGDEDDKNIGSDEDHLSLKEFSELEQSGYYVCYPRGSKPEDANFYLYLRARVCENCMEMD

[3] = molecular target: T3, cynomolgus monkey CD3 epsilon (cynomolgus monkey, UniProt Q95LI5 22-117, limits assumed); experiment: BLI or SPR
T3 construct: also called cyCD3e; cyno CD3
T3 sequence (looked up): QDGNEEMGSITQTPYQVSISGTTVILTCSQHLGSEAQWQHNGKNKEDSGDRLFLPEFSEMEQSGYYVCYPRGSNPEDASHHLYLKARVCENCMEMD

human PSMA [4] = molecular target: T4, human PSMA (human, UniProt Q04609 44-750, limits assumed); experiment: BLI or SPR
T4 construct: also called huPSMA; hPSMA
T4 sequence (Q04609 44-750 limits assumed): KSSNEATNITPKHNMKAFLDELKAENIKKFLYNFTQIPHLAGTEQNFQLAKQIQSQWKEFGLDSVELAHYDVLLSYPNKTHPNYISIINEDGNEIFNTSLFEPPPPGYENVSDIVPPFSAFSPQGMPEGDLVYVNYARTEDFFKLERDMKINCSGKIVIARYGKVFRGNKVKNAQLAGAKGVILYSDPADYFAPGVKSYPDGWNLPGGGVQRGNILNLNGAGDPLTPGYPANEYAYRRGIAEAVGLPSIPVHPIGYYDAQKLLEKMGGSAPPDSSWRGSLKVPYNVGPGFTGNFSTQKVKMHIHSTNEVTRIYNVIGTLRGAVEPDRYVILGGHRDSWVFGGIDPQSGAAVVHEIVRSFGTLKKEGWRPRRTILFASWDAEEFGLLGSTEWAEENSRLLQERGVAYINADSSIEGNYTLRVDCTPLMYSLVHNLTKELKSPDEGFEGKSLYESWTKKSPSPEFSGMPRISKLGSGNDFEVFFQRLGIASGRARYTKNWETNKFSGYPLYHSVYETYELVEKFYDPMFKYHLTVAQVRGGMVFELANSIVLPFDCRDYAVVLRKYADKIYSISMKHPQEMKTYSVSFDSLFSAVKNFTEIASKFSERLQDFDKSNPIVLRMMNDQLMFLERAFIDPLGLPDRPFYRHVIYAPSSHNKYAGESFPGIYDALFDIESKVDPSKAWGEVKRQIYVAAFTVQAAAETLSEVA

cynomolgus monkey PSMA = molecular target: T5, cynomolgus monkey PSMA (cynomolgus monkey, UniProt A0A2K5VNZ0 44-750); experiment: BLI or SPR
T5 construct: also called cyPSMA; cyno PSMA

human PSMA-Fc [5] = molecular target: T1, human PSMA-Fc; experiment: Octet, PSMA-Fc
Experimental: Binding affinity of select PSMA PTE variants was tested by Octet.

human PSMA [6] = molecular target: T4, human PSMA; experiment: binding screen

T1 sequence (Q04609 44-750 limits assumed): as above

B1: uTCE of AC3356 (bispecific antibody)
chain: QVQLVESGGGVVQPGRSLRLSCAASGRTFGIYVMGWVRQAPGKEREFVAAISWSGSNRLVSDSVKGRFTISRDNSKNTLYLQMNSLRAEDTAVYYCAASNRLYGRTWYDFNESDYWGQGTQVTVSSGGGGSGGGSEVQLLESGGGIVQPGGSLKLSCAASGFTFNTYAMNWVRQAPGKGLEWVARIRSKYNNYATYYADSVKDRFTISRDDSKNTVYLQMNNLKTEDTAVYYCVRHENFGNSYVSWFAHWGQGTLVTVSSGATPPETGAETESPGETTGGSAESEPPGEGELVVTQEPSLTVSPGGTVTLTCRSSNGAVTSSNYANWVQQKPGQAPRGLIGGTNKRAPGTPARFSGSLLGGKAALTLSGVQPEDEAVYYCALWYPNLWVFGGGTKLTVL
notes: CD3.23 in VH-VL order; also called PSMA.5 (domain swap)
Kd (human PSMA-Fc [1]): 0.0024 µM | Kd (human PSMA-Fc [2]): 0.0024 µM | koff (human PSMA-Fc [2]): 0.00018 s⁻¹ | kon (human PSMA-Fc [2]): 76000 M⁻¹ s⁻¹

B3: AMX-500(1x-N) (bispecific antibody)
chain: ASSATPESGPGTSTEPSEGSAPGTSESATPESGPGSGPGTSESATPGTSESATPESGPGSEPATSGSETPGTSESATPESGPGTSTEPSEGSAPGSPAGSPTSTEEGTSESATPESGPGSEPATSGSETPGTSESATPESGPGSPAGSPTSTEEGSPAGSPTSTEEGTSTEPSEGSAPGTSESATPESGPGTSESATPESGPGTSESATPESGPGSEPATSGSETPGSEPATSGSETPGSPAGSPTSTEEGTSTEPSEGSAPGTSTEPSEGSAPGSEPATSGSETPGTSESATPEAGRSASHTPAGLTGPGTSESATPESQVQLVESGGGVVQPGRSLRLSCAASGRTFGIYVWGWFRQAPGKEREFVGAMSWSGSNRKVSDSVKGRFTISRDNSKNTLYLQMNSLRAEDTAVYYCAASNKEYGRTWYDFNESDYWGQGTQVTVSSGGGGSGGGSELVVTQEPSLTVSPGGTVTLTCRSSNGAVTSSNYANWVQQKPGQAPRGLIGGTNKRAPGTPARFSGSLLGGKAALTLSGVQPEDEAVYYCALWYPNLWVFGGGTKLTVLSESATPESGPGTSPGATPESGPGTSESATPEVQLVESGGGIVQPGGSLRLSCAASGFTFSTYAMNWVRQAPGKGLEWVGRIRTKRNNYATYYADSVKGRFTISRDDSKNTVYLQMNSLKTEDTAVYYCVRHENFGNSYVSWFAHWGQGTLVTVSSGTATPESGPG
notes: Lacks the mask linked to the CD3 domain
Kd (human PSMA [4]): 0.23 µM | koff (human PSMA [4]): 0.012 s⁻¹ | kon (human PSMA [4]): 50000 M⁻¹ s⁻¹ | Kd (cynomolgus monkey PSMA): 2.4 µM | koff (cynomolgus monkey PSMA): 0.039 s⁻¹ | kon (cynomolgus monkey PSMA): 16000 M⁻¹ s⁻¹ | Kd (human CD3 epsilon): 0.0463 µM | koff (human CD3 epsilon): 0.1 s⁻¹ | kon (human CD3 epsilon): 2.8e+06 M⁻¹ s⁻¹ | Kd [3]: 0.038 µM | koff [3]: 0.1 s⁻¹ | kon [3]: 2.9e+06 M⁻¹ s⁻¹

B6: uTCE of AC3342 (bispecific antibody)
chain: QVQLVESGGGVVQPGRSLRLSCAASGRTFGIYVMGWVRQAPGKEREFVAAISWSGSNRLVSDSVKGRFTISRDNSKNTLYLQMNSLRAEDTAVYYCAASNKLYGRTWYDFNESDYWGQGTQVTVSSGGGGSGGGSELVVTQEPSLTVSPGGTVTLTCRSSNGAVTSSNYANWVQQKPGQAPRGLIGGTNKRAPGTPARFSGSLLGGKAALTLSGVQPEDEAVYYCALWYPNLWVFGGGTKLTVLGATPPETGAETESPGETTGGSAESEPPGEGEVQLLESGGGIVQPGGSLKLSCAASGFTFNTYAMNWVRQAPGKGLEWVARIRSKYNNYATYYADSVKDRFTISRDDSKNTVYLQMNNLKTEDTAVYYCVRHENFGNSYVSWFAHWGQGTLVTVSS
notes: Linker given only as 9 residues; also called PSMA.132
Kd (human PSMA-Fc [1]): 0.0056 µM | Kd (human PSMA-Fc [5]): 0.0056 µM | koff (human PSMA-Fc [5]): 0.000479 s⁻¹ | kon (human PSMA-Fc [5]): 86600 M⁻¹ s⁻¹

B7: AMX-500(1x-C) (bispecific antibody)
chain: GTSESATPESQVQLVESGGGVVQPGRSLRLSCAASGRTFGIYVWGWFRQAPGKEREFVGAMSWSGSNRKVSDSVKGRFTISRDNSKNTLYLQMNSLRAEDTAVYYCAASNKEYGRTWYDFNESDYWGQGTQVTVSSGGGGSGGGSELVVTQEPSLTVSPGGTVTLTCRSSNGAVTSSNYANWVQQKPGQAPRGLIGGTNKRAPGTPARFSGSLLGGKAALTLSGVQPEDEAVYYCALWYPNLWVFGGGTKLTVLSESATPESGPGTSPGATPESGPGTSESATPEVQLVESGGGIVQPGGSLRLSCAASGFTFSTYAMNWVRQAPGKGLEWVGRIRTKRNNYATYYADSVKGRFTISRDDSKNTVYLQMNSLKTEDTAVYYCVRHENFGNSYVSWFAHWGQGTLVTVSSGTATPESGPGEAGRSASHTPAGLTGPATPESGPGTSESATPESGPGSPAGSPTSTEEGTSESATPESGPGSEPATSGSETPGTSESATPESGPGTSTEPSEGSAPGTSTEPSEGSAPGTSTEPSEGSAPGTSTEPSEGSAPGTSTEPSEGSAPGTSTEPSEGSAPGSPAGSPTSTEEGTSTEPSEGSAPGTSESATPESGPGSEPATSGSETPGTSESATPESGPGSEPATSGSETPGTSESATPESGPGTSTEPSEGSAPGTSESATPESGPGSPAGSPTSTEEGSPAGSPTSTEEGSPAGSPTSTEEGTSESATPESGPGTSTEPSEGSAPGTSESATPESGPGSEPATSGSETPGTSESATPESGPGSEPATSGSETPGTSESATPESGPGTSTEPSEGSAPGSPAGSPTSTEEGTSESATPESGPGSEPATSGSETPGTSESATPESGPGSPAGSPTSTEEGSPAGSPTSTEEGTSTEPSEGSAPGTSESATPESGPGTSESATPESGPGTSPSATPESGPGSEPATSGSETPGSEPATSGSETPGSPAGSPTSTEEGTSTEPSEGSAPGTSTEPSEGSAPGSEPATSGSETPGTSESAGEPEA
notes: Lacks the mask linked to the PSMA domain
Kd (human PSMA [4]): 0.353 µM | koff (human PSMA [4]): 0.012 s⁻¹ | kon (human PSMA [4]): 35000 M⁻¹ s⁻¹ | Kd (cynomolgus monkey PSMA): 2.9 µM | koff (cynomolgus monkey PSMA): 0.039 s⁻¹ | kon (cynomolgus monkey PSMA): 14000 M⁻¹ s⁻¹ | Kd (human CD3 epsilon): 0.0344 µM | koff (human CD3 epsilon): 0.1 s⁻¹ | kon (human CD3 epsilon): 3.2e+06 M⁻¹ s⁻¹ | Kd [3]: 0.0267 µM | koff [3]: 0.1 s⁻¹ | kon [3]: 3.4e+06 M⁻¹ s⁻¹

Second part, the binder after the results:

Kd (human CD3 epsilon): 0.09 µM | Kd [3]: 0.07 µM
B2: AMX-500 (bispecific antibody)
chain: ASSATPESGPGTSTEPSEGSAPGTSESATPESGPGSGPGTSESATPGTSESATPESGPGSEPATSGSETPGTSESATPESGPGTSTEPSEGSAPGSPAGSPTSTEEGTSESATPESGPGSEPATSGSETPGTSESATPESGPGSPAGSPTSTEEGSPAGSPTSTEEGTSTEPSEGSAPGTSESATPESGPGTSESATPESGPGTSESATPESGPGSEPATSGSETPGSEPATSGSETPGSPAGSPTSTEEGTSTEPSEGSAPGTSTEPSEGSAPGSEPATSGSETPGTSESATPEAGRSASHTPAGLTGPGTSESATPESQVQLVESGGGVVQPGRSLRLSCAASGRTFGIYVWGWFRQAPGKEREFVGAMSWSGSNRKVSDSVKGRFTISRDNSKNTLYLQMNSLRAEDTAVYYCAASNKEYGRTWYDFNESDYWGQGTQVTVSSGGGGSGGGSELVVTQEPSLTVSPGGTVTLTCRSSNGAVTSSNYANWVQQKPGQAPRGLIGGTNKRAPGTPARFSGSLLGGKAALTLSGVQPEDEAVYYCALWYPNLWVFGGGTKLTVLSESATPESGPGTSPGATPESGPGTSESATPEVQLVESGGGIVQPGGSLRLSCAASGFTFSTYAMNWVRQAPGKGLEWVGRIRTKRNNYATYYADSVKGRFTISRDDSKNTVYLQMNSLKTEDTAVYYCVRHENFGNSYVSWFAHWGQGTLVTVSSGTATPESGPGEAGRSASHTPAGLTGPATPESGPGTSESATPESGPGSPAGSPTSTEEGTSESATPESGPGSEPATSGSETPGTSESATPESGPGTSTEPSEGSAPGTSTEPSEGSAPGTSTEPSEGSAPGTSTEPSEGSAPGTSTEPSEGSAPGTSTEPSEGSAPGSPAGSPTSTEEGTSTEPSEGSAPGTSESATPESGPGSEPATSGSETPGTSESATPESGPGSEPATSGSETPGTSESATPESGPGTSTEPSEGSAPGTSESATPESGPGSPAGSPTSTEEGSPAGSPTSTEEGSPAGSPTSTEEGTSESATPESGPGTSTEPSEGSAPGTSESATPESGPGSEPATSGSETPGTSESATPESGPGSEPATSGSETPGTSESATPESGPGTSTEPSEGSAPGSPAGSPTSTEEGTSESATPESGPGSEPATSGSETPGTSESATPESGPGSPAGSPTSTEEGSPAGSPTSTEEGTSTEPSEGSAPGTSESATPESGPGTSESATPESGPGTSPSATPESGPGSEPATSGSETPGSEPATSGSETPGSPAGSPTSTEEGTSTEPSEGSAPGTSTEPSEGSAPGSEPATSGSETPGTSESAGEPEA
notes: also called AC3896; AMX-500-P4

Kd (human PSMA-Fc [1]): 0.0027 µM | Kd (human PSMA-Fc [5]): 0.0027 µM | koff (human PSMA-Fc [5]): 0.00028 s⁻¹ | kon (human PSMA-Fc [5]): 104000 M⁻¹ s⁻¹
B4: uTCE of AC3265 (bispecific antibody)
chain: QVQLVESGGGVVQPGRSLRLSCAASGRTFGIYVMGWYRQAPGKEREFVAAISWSGSNRLVSDSVKGRFTISRDNSKNTLYLQMNSLRAEDTAVYYCAASNRLYGRTWYDFNESDYWGQGTQVTVSSGGGGSGGGSELVVTQEPSLTVSPGGTVTLTCRSSNGAVTSSNYANWVQQKPGQAPRGLIGGTNKRAPGTPARFSGSLLGGKAALTLSGVQPEDEAVYYCALWYPNLWVFGGGTKLTVLGATPPETGAETESPGETTGGSAESEPPGEGEVQLLESGGGIVQPGGSLKLSCAASGFTFNTYAMNWVRQAPGKGLEWVARIRSKYNNYATYYADSVKDRFTISRDDSKNTVYLQMNNLKTEDTAVYYCVRHENFGNSYVSWFAHWGQGTLVTVSS
notes: Linker given only as 9 residues; also called PSMA.55

Kd (human PSMA-Fc [1]): 0.0032 µM | Kd (human PSMA [6]): 0.0041 µM | Kd (human PSMA-Fc [5]): 0.0032 µM | koff (human PSMA-Fc [5]): 0.000248 s⁻¹ | kon (human PSMA-Fc [5]): 80000 M⁻¹ s⁻¹
B5: uTCE of AC3329 (bispecific antibody)
chain: QVQLVESGGGVVQPGRSLRLSCAASGRTFGIYVMGWVRQAPGKEREFVAAISWSGSNRKVSDSVKGRFTISRDNSKNTLYLQMNSLRAEDTAVYYCAASNRLYGRTWYDFNESDYWGQGTQVTVSSGGGGSGGGSELVVTQEPSLTVSPGGTVTLTCRSSNGAVTSSNYANWVQQKPGQAPRGLIGGTNKRAPGTPARFSGSLLGGKAALTLSGVQPEDEAVYYCALWYPNLWVFGGGTKLTVLGATPPETGAETESPGETTGGSAESEPPGEGEVQLLESGGGIVQPGGSLKLSCAASGFTFNTYAMNWVRQAPGKGLEWVARIRSKYNNYATYYADSVKDRFTISRDDSKNTVYLQMNNLKTEDTAVYYCVRHENFGNSYVSWFAHWGQGTLVTVSS
notes: also called PSMA.119
